# Entries after “also recorded” stand apart in the source; their conditions may differ. No end group written: not given here. *: point of attachment. SO3 = O=S(=O)(O)*
# Assays:
# [1] = molecular target: factor Xa (Homo sapiens, UniProt P00742); experiment: Cofactor effect of factor Va heavy chain peptides on factor Xa alone; format: biochemical; details: peptide incubated with factor Xa alone
# [2] = molecular target: T1, prothrombinase (Homo sapiens, UniProt P00734); experiment: Assay measuring thrombin formation (prothrombinase inhibition by peptides, DAPA fluorescence); format: biochemical; details: for inhibition of prothrombinase activity with increasing peptide: FIG. 10A, up to 8000 nM
# T1 construct: purchased Haematologic Technologies Inc. (Essex Junction, Vt.)
# Method: Assay measuring thrombin formation. The formation of thrombin was analyzed using the fluorescent thrombin inhibitor DAPA as described using a Perkin Elmer LS-50B Luminescence Spectrometer (Perkin-Elmer LLC, Norwalk Conn.) with λex=280 nm, λem=550 nm and a 500 nm long pass filter in the emission beam (Schott KV-500). […] In all cases peptides were preincubated with factor tor Va prior to the assay as described in the legend to the figures. The final concentration of factor tor Va in the mixture was 4 nM with factor Xa at 10 nM, prothrombin at 350 nM, DAPA at 700 nM, in the presence of PCPS vesicles (10 μM). The initial rate of thrombin formation (nM IIa·min^−1) was calculated as described during the initial 5-10 sec of the reaction. To verify if the peptides have any effect on the active-site of thrombin, control experiments were performed as follows: a given peptide (at 100 μM) was incubated in the assay buffer containing DAPA (700 nM); the base line was monitored for 30 sec; thrombin (350 nM) was then added to the mixture and the fluorescent intensity resulting from the complexation of DAPA with the active site of thrombin was monitored for 60 sec. The slope of the reaction measuring thrombin formation in the presence of a given peptide during the first 5 sec was calculated and compared to the slope of a reaction obtained in the absence of peptide. It is noteworthy that under the conditions employed the thrombin-DAPA interaction occurred fast and the calculated slope of the reaction was sensitive to all parameters used. […] All experiments were performed in triplicates or as indicated. The concentration of each peptide given in the figures and figure legends is their final concentration in the assay. […] In some cases the data were also analyzed and plotted using DeltaGraph (DeltaPoint, Monterey, Calif.).
# Specifically, peptides were incubated with factor tor Va as described herein at a fixed concentration (100 μM). The percent of factor tor Va cofactor activity was calculated by comparing the activity of prothrombinase in the presence of a given peptide to the activity of prothrombinase determined in a control reaction in the absence of peptide and in the presence of factor Xa. […] The control peptide represents a pentadecapeptide from the middle portion of factor tor Va heavy chain (P15H) (SEQ ID NO. 22). […] All other peptides from region 680-709 had no significant effect on prothrombinase activity.
# HC3 represents amino acid sequence 690-699 of factor tor Va heavy chain; HC4 contains the sequence 695-704 of human factor tor Va heavy chain; P15H represents amino acid sequence 337-351 from the middle portion of human factor tor Va heavy chain. […] The concentration of each peptide given on the x axis represents its final concentration in the prothrombinase mixture. […] Thus, both peptides show similar inhibitory potential.
# [3] = Clotting time as a function of peptide concentration (FIG. 12); details: peptide 500 nM
# From the text: FIG. 12 is a graph illustrating clotting time as a function of concentration of various peptides of interest as follows: DYDYQ (SEQ ID NO. 11) (filled squares); DYDYQ (1, 2) (or as designated in shorthand form, D5Q1,2) (SEQ ID NO. 9) (filled triangles); DYDYQ-1 (SEQ ID NO. 7) (filled inverted triangles); and DYDYQ-2 (SEQ ID NO. 8) (filled diamonds).
# [4] = test system: factor V deficient plasma; experiment: Clotting activity of recombinant factor V molecules; details: for Activity / Specific activity / clotting time: factor V species at 2.5 nM
# Method: Determination of factor V/tor Va clotting activity of the recombinant molecules. Cofactor activity of wild type and mutant molecules was measured in a clotting assay using factor V deficient plasma prior and after activation by thrombin (15 min, 37° C.) and RVV-V activator (2 hr, 37° C.) as described. The values were standardized to the percentage of control. A linear semi-log graph was constructed using known concentrations of purified factor V (U/ml as a function of clotting time). The assay endpoint was determined by visualization of the fibrin clot. The activity of the factor VNa solution (U/ml) was determined by extrapolation from the graph. The concentration of the recombinant molecules was determined by a recently described ELISA. Finally, the numbers were combined to obtain the specific activity of the recombinant factor V solutions (U/mg).
# [5] = molecular target: T2, active-site-immobilized thrombin (Homo sapiens, UniProt P00734); experiment: Direct binding of the peptides to thrombin-agarose (chromatography); details: 400 μg peptide, 2.5 ml column, elution 2M NaCl
# T2 construct: Factor Xa cleaves prothrombin to form thrombin; purchased Haematologic Technologies Inc. (Essex Junction, Vt.)
# Method: Direct binding of the peptides to thrombin. Thrombin was immobilized onto agarose through the active site as described. Peptide solutions of HC1-HC5 (SEQ ID NO. 2-6, respectively), D13R (SEQ ID NO. 21), DYDYQ (SEQ ID NO. 11), and P15H (SEQ ID NO. 22) were dissolved in water to a given concentration and then diluted in 20 mM Hepes, 0.1 M NaCl, pH 7.4 in a manner that 400 μg was contained in each starting solution. In control experiments it was determined that the maximum amount of peptide that could be retained by the thrombin-agarose column was 400 μg. Since some of the peptides contain aromatic amino acid residues, their concentration was also measured by optical density.
# Mass spectrometry instruments and conditions. The identity of all peptides found in the flow-through or the elution of the thrombin-agarose column was verified by mass spectrometry. Since the peptides were in a buffer solution, we used Liquid Chromatography/Mass Spectrometry (LC/MS) for their identification. In this procedure peptides are first separated from the salt content of the buffer using an HPLC system (HP 1100, HPLC gradient system, Agilent Technologies, Palo Alto Calif.) with a C18 column (1 mm×15 cm, GraceVydac, Hesperia Calif.) with buffers A (0.3% acetic acid in water) and B (0.3% acetic acid in acetonitrile). The elution of the column was monitored with a Micromass Quatro II ESI-Triple Quadrupole Mass Spectrometer (Waters, Milford Mass.). The data were collected using a Compaq Professional Workstation AP200 (Hewlett-Packard, Palo Alto Calif.) and analyzed by the software MassLynx v3.3 (Waters, Milford Mass.).
# Direct interaction of hirudin-like peptides from factor tor Va heavy chain With thrombin-agarose. To ascertain that the peptides of interest are inhibitory of prothrombinase activity and contain a binding site for thrombin, the interaction of all peptides with active-site-immobilized thrombin was studied in chromatographic experiments and is shown in FIG. 5. In FIG. 5, small scale chromatography of hirudin-like peptides was performed on a 2.5 ml thrombin-agarose. Each run represents 400 μg of peptide. This amount of peptide was determined to saturate the specific sites of thrombin of the column used (2.5 ml). Elution was performed with 2M NaCl and was started at the point indicated by the arrow (fraction #30). The presence of the peptides in the corresponding fractions was monitored by absorbance at 280 nm (shown on the y axis) and by LC/MS (inset). […] Specifically, these peptides were treated similarly to all other peptides and similar fractions were collected. Aliquots from fractions #7 and #35 from each separate experiment were submitted to LC/MS analysis as described herein (depicted by the hatched arrows at the bottom of the chromatogram). The results from tube #7 from three chromatograms are depicted. The data are presented as % intensity of the signal as a function of the mass of the peptide divided by the charge (m/z). FIG. 5A, HC1 (Mr calculated 1268); FIG. 5B, HC2 (Mr calculated 1132); FIG. 5C, HC5 (Mr calculated 1053). The spectrum of HC1 has two major peaks: at 635.5 and at 424, and one minor peak at 1270 (1268+1). The peak at 635.5 represents the peptide (mass/charge) with two positive charges ([…]) i.e. [(1268+2=1270)]/2=635 whereas, the peak at 424 represents HC1 with three positive charges ([…]) i.e. [(1268+3=1271)]/3=424. […] HC5 spectrum has two major peaks: one at 528 and one at 352. The peak at 528 represents the peptide with two positive charges ([…]) i.e. [(1053+2=1055)]/2=527.5 while, the other peak represents HC5 with three positive charges ([M+31-]^2+) i.e. [(1053+3=1056)]/3=352. The minor peak at 1054 represents the peptide with one charge. It is noteworthy, that in gas phase the number of protons attached to each peptide depends on the number (quantity) of basic residues contained in each peptide. […] Thus, HC1 and HC5 are more likely to bind two or three protons than HC2. […]
# factor Xa, sequence (P00742 235-488 limits assumed): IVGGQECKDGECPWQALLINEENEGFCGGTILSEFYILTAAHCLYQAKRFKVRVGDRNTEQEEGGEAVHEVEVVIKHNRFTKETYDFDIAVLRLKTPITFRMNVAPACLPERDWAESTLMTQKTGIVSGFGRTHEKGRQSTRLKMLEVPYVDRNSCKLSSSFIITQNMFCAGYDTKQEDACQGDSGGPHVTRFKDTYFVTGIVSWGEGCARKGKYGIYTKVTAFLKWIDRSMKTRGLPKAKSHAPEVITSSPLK
# factor Xa, sequence (P00742 41-179 limits assumed): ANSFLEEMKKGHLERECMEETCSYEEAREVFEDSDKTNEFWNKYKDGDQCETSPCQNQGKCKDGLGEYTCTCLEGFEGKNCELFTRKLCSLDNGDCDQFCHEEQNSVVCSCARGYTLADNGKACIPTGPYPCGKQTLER
substance,measurement,setting,value
"AP4′: nine amino acid peptide, residues 323-331, from N42R (EYFIAAEEV; listed as Homo sapiens)",cofactor effect on factor Xa,[1],generated a cofactor effect
"DY(—SO3)DYQ (DY(SO3)DYQ) [DYDYQ-1, DYDYQ with first Y sulfonated]",inhibition of prothrombinase activity with increasing peptide,[2],significant inhibitory effects
same,clotting time,[3],relatively long clotting times
"DYDY(—SO3)Q (DYDY(SO3)Q) [DYDYQ-2, DYDYQ with second Y sulfonated]",inhibition of prothrombinase activity with increasing peptide,[2],significant inhibitory effects
same,clotting time,[3],relatively long clotting times
"E5A: five amino acid peptide, residues 323-327, from N42R (EYFIA; listed as Homo sapiens)",cofactor effect on factor Xa,[1],generated a cofactor effect
"Factor V^2K2F: quadruple mutant, recombinant human factor V with mutations D695→K, Y696→F, D697→K, Y698→F",ability to promote clotting,[4],unable to promote clotting
same,Activity,[4],0.0046 U/ml
same,Specific activity,[4],5.6 U/mg
same,clotting time,[4],66.7 ± 1.3 s
HC1: overlapping 10 amino acid peptide from region 680-709 of human factor Va heavy chain (KMHDRLEPED; listed as Homo sapiens),interaction with immobilized thrombin (thrombin-agarose),[5],present in the flow-through
HC2: overlapping 10 amino acid peptide from region 680-709 of human factor Va heavy chain (LEPEDEESDA; listed as Homo sapiens),interaction with immobilized thrombin (thrombin-agarose),[5],present in the flow-through
"N42R: 42 amino acid peptide from the middle portion of factor Va heavy chain, residues 307-351 of factor V (NLKKITREQRRHMKRWEYFIAAEEVIWDYAPVIPANMDKKYR; listed as Homo sapiens)",cofactor effect on factor Xa,[1],increasing the catalytic efficiency of the enzyme by several-fold
"P15H: negative control pentadecapeptide, amino acid sequence 337-351 from the middle portion of human factor Va heavy chain (PVIPANMDKKYRSQH) [reference compound]",effect on prothrombinase / factor Va cofactor activity at fixed concentration,[2]; peptide 100 μM,no effect on cofactor activity; also recorded: no effect on prothrombinase function
same,interaction with immobilized thrombin (thrombin-agarose),[5],did not interact with thrombin
Wild type FV: recombinant wild type human factor V expressed in COS-7L cells,specific clotting activity after activation by RVV-V activator,[4]; activated by RVV-V activator,570 U/mg
same,specific clotting activity after activation by thrombin,[4]; activated by thrombin,497 U/mg
same,Activity,[4],0.12 U/ml
same,Specific activity,[4],145 U/mg
same,clotting time,[4],32.1 ± 1.2 s

# — patent publication US20100267638A1, “EXOSITE-DIRECTED THROMBIN INHIBITORS” (CLEVELAND STATE UNIVERSITY, priority 2003, published 2010)
